From patent US20200317753A1 (LIFEARC, published 2020)
Numbering of substitutions follows the chain as printed. Read-outs that look alike come from different tables or passages of the source.

Columns and labels:
[1] = target: T1, EV71-VLP (virus-like particle) (Enterovirus 71); assay: Bio-Layer Interferometry, steady state plot (apparent KD)
T1 construct: Particle of several capsid proteins

[2] = target: T1, EV71-VLP (virus-like particle); assay: binding ELISA on EV71-VLP, absorbance at 450 nm
[3] = target: T2, SP70 peptide epitope of the EV71 VP1 capsid protein (Enterovirus 71); assay: binding ELISA on SP70 peptide, absorbance at 450 nm
T2 construct: 15-amino acid peptide; residues 208-222 counted on VP1
T2 peptide: YPTFGEHKQEKDLEY

[4] = target: T2, SP70 peptide epitope of the EV71 VP1 …; assay: binding ELISA on SP70 peptide, OD 650 nm [upper panel]
Experimental: (§1) Serial dilutions of antibody variants (starting from ˜100 −g/ml) were added to immobilised EV71-VLP or the SP70 peptide epitope, shaken for one hour at room temperature and washed with PBS-T. Anti-human kappa chain HRP was added and the incubation and washing steps were repeated. TMB/K-Blue substrate was incubated with the reaction for 5-10 minutes at room temperature before the reaction was stopped with H₂SO₄ RED STOP. The optical density was read at 450/650 nm.

[5] = target: T2, SP70 peptide epitope of the EV71 VP1 …; assay: isothermal titration calorimetry, observed KD
Text: (§2) KD can be calculated using Gibbs free energy, enthalpy and entropy: ΔG=ΔH−TΔS and ΔG=RT In KD.

[6] = target: T2, SP70 peptide epitope of the EV71 VP1 …; assay: isothermal titration calorimetry (observed KD); the text paragraph 208 prints 17.1 nM
[7] = target: T2, SP70 peptide epitope of the EV71 VP1 …; assay: isothermal titration calorimetry
[8] = target: T2, SP70 peptide epitope of the EV71 VP1 …; assay: isothermal titration calorimetry, observed KA
Text: as §2

[9] = target: T2, SP70 peptide epitope of the EV71 VP1 …; assay: binding ELISA on SP70 peptide, OD 650 nm
Experimental: as §1

[10] = target: T1, EV71-VLP (virus-like particle); assay: binding ELISA on EV71-VLP, absorbance at 450 nm; remark: listed apart in the source
[11] = target: T2, SP70 peptide epitope of the EV71 VP1 …; assay: binding ELISA on SP70 peptide, absorbance at 450 nm
[12] = target: T2, SP70 peptide epitope of the EV71 VP1 …; assay: binding ELISA on SP70 peptide, OD 650 nm
Experimental: as §1

[13] = target: T2, SP70 peptide epitope of the EV71 VP1 …; assay: binding ELISA on SP70 peptide, antibody not incubated, OD 650 nm [top panel]

B1: murine D5 antibody (antibody, V domains shown)
VH: EVQLQQSGAELVKPGASVKLSCTASGFNIKDTYIHWVKQRPEQGLEWIGKIDPANGNTKYDPKFQDKATITADTSSNTAYLQLSSLTSEDTAVYYCANSNYWFDFDYWGQGTTLTVSS
VL: DVLMTQTPLSLPVSLGDQASISCRSSQSIVHSNGNTYLEWYLQKPGQSPKLLIYKVSNRFSGVPDRFSGSGSGTDFTLKISRVEADDVGVYYCYQGSHVPYTFGGGTKLEIK
notes: Mouse monoclonal IgG1 (label mD5 IgG1); also called mD5; mouse D5
Work on B1 yielded a Kd [1] of 1.8 nM, an EC50 [2] of 12.7 nM and an EC50 [3] of 0.3 nM.

B2: hEV71 HAKA (antibody, V domains shown)
VH: QVQLVQSGAEVKKPGASVKVSCKASGYTFTDTYIHWVRQAPGQRLEWIGKIDPANGNTKYDPKFQDRVTITRDTSASTAYMELSSLRSEDTAVYYCASSNYWFDFDYWGQGTLVTVSS
VL: B1 VL with V2I, L3V, T7S, S14T, L15P, D17E, Q18P, K50Q, D86E, L109V
notes: Variable domains only; cloned into pHuG1 and pHuK (human IgG / kappa) vectors, expressed in Expi293 cells
B2: binds [4].

B3: chimeric D5 antibody (antibody, V domains shown)
VH: B1 VH
VL: B1 VL
notes: Human constant regions and murine D5 variable regions, expressed in Expi293 cells; also called chD5; cD5 CHCK
With B3 the Kd [5] was 17.1 nM, the Kd [6] was 17.7 nM and the Kd [1] was 0.2 nM. For the same binder, the ΔH [7] was -12800 cal/mol, the ΔS [7] was -7.63 cal/mol/deg and the Ka [8] was 5.66e+07 M⁻¹. The EC50 [9] was 1.4 nM, the EC50 [10] was 1.6 nM and the EC50 [11] was 6.7 nM.

B4: hEV71 HDKA (antibody, V domains shown)
VH: B2 VH with T28N
VL: B1 VL with V2I, L3V, T7S, S14T, L15P, D17E, Q18P, K50Q, D86E, L109V
notes: Variable domains only
B4: binds [12].

B5: hEV71 HQKA (antibody, V domains shown)
VH: QVQLVQSGAEVKKPGASVKVSCTASGFNIKDTYIHWVKQAPGQRLEWIGKIDPANGNTKYDPKFQDKATITADTSANTAYMELSSLRSEDTAVYYCANSNYWFDFDYWGQGTLVTVSS
VL: B1 VL with V2I, L3V, T7S, S14T, L15P, D17E, Q18P, K50Q, D86E, L109V
notes: Variable domains only
Work on B5 yielded an EC50 [9] of 1.09 nM.

B6: hEV71 HCKA (antibody, V domains shown)
VH: B2 VH with Y27F
VL: B1 VL with V2I, L3V, T7S, S14T, L15P, D17E, Q18P, K50Q, D86E, L109V
notes: Variable domains only; pHuG1 / pHuK vectors
B6: binds [12].

B7: hEV71 HEKA (antibody, V domains shown)
VH: B2 VH with F29I
VL: B1 VL with V2I, L3V, T7S, S14T, L15P, D17E, Q18P, K50Q, D86E, L109V
notes: Named only within the range hEV71 HCKA to hEV71 HJKA; Variable domains only
B7: binds [12].

B8: hEV71 HGKA (antibody, V domains shown)
VH: B2 VH with R67K
VL: B1 VL with V2I, L3V, T7S, S14T, L15P, D17E, Q18P, K50Q, D86E, L109V
notes: as for B7
B8: binds [12].

B9: hEV71 HPKA (antibody, V domains shown)
VH: B2 VH with R67K, S98N
VL: B1 VL with V2I, L3V, T7S, S14T, L15P, D17E, Q18P, K50Q, D86E, L109V
notes: Variable domains only
B9 was tested, and the EC50 [9] was 67.7 nM.

B10: hEV71 HIKA (antibody, V domains shown)
VH: B2 VH with R72A
VL: B1 VL with V2I, L3V, T7S, S14T, L15P, D17E, Q18P, K50Q, D86E, L109V
notes: as for B7
B10: binds [12].

B11: hEV71 HBKA (antibody, V domains shown)
VH: B5 VH with T23K, K38R, N77S
VL: B1 VL with V2I, L3V, T7S, S14T, L15P, D17E, Q18P, K50Q, D86E, L109V
notes: as for B6
B11 showed an EC50 [9] of 1.62 nM.

B12: hEV71 HNKA (antibody, V domains shown)
VH: B5 VH with T23K, N77S
VL: B1 VL with V2I, L3V, T7S, S14T, L15P, D17E, Q18P, K50Q, D86E, L109V
notes: Variable domains only
In the case of B12, the EC50 [9] is reported as 1.35 nM.

B13: hEV71 HFKA (antibody, V domains shown)
VH: B2 VH with T30K
VL: B1 VL with V2I, L3V, T7S, S14T, L15P, D17E, Q18P, K50Q, D86E, L109V
notes: as for B7
B13: binds [12].

B14: hEV71 HMKA (antibody, V domains shown)
VH: B5 VH with K38R
VL: B1 VL with V2I, L3V, T7S, S14T, L15P, D17E, Q18P, K50Q, D86E, L109V
notes: Variable domains only; pHuG1 / pHuK vectors, Expi293 cells; behaves as an IgG monomer; also called huEV71 HMKA; EVM00
In the case of B14, the Kd [5] is reported as 38.2 nM, the “EC50 (read off the curve)” value [13] is reported as ~0.8 nM and the ΔH [7] is reported as -16500 cal/mol. It also gave a ΔS [7] of -21.4 cal/mol/deg, a Ka [8] of 2.62e+07 M⁻¹ and an EC50 [9] of 1.15 nM.

B15: hEV71 HJKA (antibody, V domains shown)
VH: B2 VH with S98N
VL: B1 VL with V2I, L3V, T7S, S14T, L15P, D17E, Q18P, K50Q, D86E, L109V
notes: as for B6
B15: binds [12].

B16: hEV71 HAKB (antibody, V domains shown)
VH: B2 VH
VL: B1 VL with T7S, S14T, L15P, D17E, Q18P, K50Q, D86E, L109V
notes: as for B6
B16: binds [4].

B17: hEV71 HHKA (antibody, V domains shown)
VH: B2 VH with V68A
VL: B1 VL with V2I, L3V, T7S, S14T, L15P, D17E, Q18P, K50Q, D86E, L109V
notes: as for B7
B17: binds [12].
